Measured values published in a protein production outcome set (Wang et al. 2014).

Test: label from the status in PepcDB records

Sequence | protein production
MKKAGILLLSLLMPFSTAFAEASKPLSVELLWQLKRIGSPVVSSTGEHIIAPVTEYDLKEDKGSTQLWRFDVEGKNNRAITAKGLKVSEPVFSPDGKTLAFISERNDDDAGQIYLLPMDGPGEAAKLTDIPTGVNGIKWVGKHLYFISNIFPEQNWEQMKAQLKTDKDNKVSARQWNALPYSQFDHWLDERRQAHVFRIPATGGTVEAVTQPLGHELPRSSQSSESYDISPDERLIAFSAYGSDNRVDPKLDLFLATIGGNKAENITPENPAPDLNPSFSPNGKTLAFTRQKIPGFYADTARLMLLDVSSRKLTTLTPDWDRSVSEFEWTPDSKGFYASIEDAATNRIYHIDAKSGKAKAITQATDFSQPAIAKDGQLIATNQSFLYPARLVSINPRNGKTERLEQFNDDILKDVDLGTYESVTYKGYQGQDIQMWVHYPPGFDRSKKYPLFMLIHGGPHNAISDGFHYRWNAQTFASWGYVTAWPNFHGSSGFGQDFADAINPDWKNKSLEDVLKATDWFKQQSWIDSDRMVAGGASYGGYLTSIILGQPHPFKALLIHAAVYDMYAQMSADFAVHSTRFGNYWDNPELYKAISPHYFAANFNTPTLVSHGQLDYRVPVGQGFELFRTLQTRNVESRMIYFPDENHWIVKPNNSIYWYNQVKDWMAHYAKPGAQ | failed
MSGILALGAYVPERVMTNADFEAYLDTSDEWIVTRTGIKERRVAAEDEYTSDLAFKAVEDLLRRHPGALEGVDAVIVATNTPDALFPDTAALVQARFGLKAFAYDLLAGCPGWIYALAQAHALVEAGLAQKVLAVGAEALSKIIDWNDRATAVLFGDGGGAAVVGKVREGYGFRSFVLGADGTGAKELYHACVAPRLPDGTSMKNRLYMNGREVFKFAVRVMNTATLEAIEKAGLTPEDIRLFVPHQANLRIIDAARERLGLPWERVAVNVDRYGNTSTASIPLALKEALDAGRIREGDHVLLVSFGAGLTWAAAVLTWGGA | not failed
MNNGRRIGLIMIITGATLWGLSGPMIQWLFQHTNVSSIDFLTIRLLLAGIFILSFLLIKKQNIFQIWKHPRYSIQLIIFSILGMLGAQYAFIETVHISNAVTATLFQFLGPVLITMYVAFEQRKFPASMQLFAIIAALIGTYFIITNGSIENIVLSKEAIIFGLLTAIGFAFYTLHPASLIKECGTTVVIGWGMLIGGIALLIYNRSFGWNQFSQTLTLKTFSMLILIIISGTLSFLLYIGSLKYLAATETSILSSIEPLVAAIVSITWLNESFGTYQLLGGVCIVLSVIFLTMPQKETEPTYTTEQI | failed
MRILLVSRPHPEGARDPFTSLLPTGLGYLNAVLRENGFTSSLANLSTASWRQVEELLRRERPAILGISVFTHNRFESLRLAALAKKVDPTCLTIFGGPHATHAFESILVKYREVDGVILGEGEETFLDLARAVERGDRSLTGIVGLAYRKGAKVHSVKRPPVADLDVLPLPALHMNDAWGCDVRRQLEFIITSRGCPAACRFCSSPRFWGKSLRFRSPRAMVDEIRAIRDRYGLIYFSLRDDTFTVRKDRVIDFCRLLLEEKVHILWNCQSRVNAVDEEMLIWMRRAGCECVQYGVESGSEKILAYLGKQITPEQVRRAAKATRRAGISLSIYLISGVPGETDDDLQATLTLISNILPHDGHVAPLAYYPGTALFDEAVREGRVGADLFERERGAALYVRRDPFVARSMETLLRALTRVERKARFGPADFTAQREFLGYCHGTNLGQGEWLEAKGDIGKAEALYREIVERQPENPWGWLALGGLHGSRGDVTRAGKAFERAISLVPAHVPAYLALGDLRLEEGDQRGAKQLYETAKRLNPRDTDVGERLRMVVAERGTKKGDT | failed
MTINPRDYDLDELRKMARQRGNGMGDEDVPDPTDLDMGLDDADEEVLAGSSFRSGLYRELLPFLSGDAQEKPYLEALPETYAAEFVVFEWLEFLLMHSGYKGADEALDYYRSIDWLTEDVQDDLSDYLLGIDESATNDDNELSVDDHMLSLVYIAKLTAMT | failed
LVEDFERELGRMLSPFELEDLQKTVSDDKTDPDLVRSALREAVFNGKTNWNYIQAILRNWRHEGISTLRQVEE | not failed
MDDWRRFAQQMASLARDLLSQESLHDTLDRITASATELVEDCDAAGILILRGTKVQSLAPTEQVVIDSDALQGRVGEGPCFDAARSGTGERQFRIADFTDEAQRWPKYVPEARKLNLGSMMGFLLFTEDEDLGALNMYSYRPGAFTEADETAGWLLASHAAVAFSSARTHAQMQEAIGTRHIIGEAMGILMGRHRMSEDQAFAALRRYSQDHNVKLRNVAAQVCERGGLPEPTDKR | failed
MQGAGRLMQPRPDSAFVHDVRVTWGDCDPAKIAYTGHLPRFALEAIDAWWSEYHGPGGWYHLELDTNVGTPFVRLEMDFKSPVTPRHILKCHTWPTRLGTKSITFRVDGVQDGVTCFVGAFTCVFTIADQFKSQPAPDHLRALIEPHIPA | not failed
MKPLSARQQQVLQATVHHYVDTMEPVGSRTLVQRFGIPASSATVRSAMGALEKRGLLTQPHTSAGRIPSALGYRCYVDDLLPEPGVAVQHLERELTGLSLRWAALDDLLQQLARRLTDFTGLMSLITRPQQPRAQLEAIRLVQSGDRLLVMLVEDSGRASHLNLRLPPGASDELTAIERWTDQQLEDGSINWRSLPPQLQRSGDVLRSALDHPSMSPETPLVVHGLSRLVAEPEFHSTAELRPLLELIDDQPCAVVSATDQPGVWIGEEHPQKALQACSVVQAPYRCGQEGVGQVALVGPMRMAYATAHAAVQRVARHLDLLLN | failed
MRSMLQDSLVLLDYLRGMLLHNEELWLLLFPVMIIIELPLYLLVLTGIFRWSYMREEPELKRFPSVSFVITCYGEGEAIGITIDTLVEQIYPGHIEILAVVDGAVQNQDTYKAALNGERRHTGVRNRKVRVLPKWQRGGRVSTLNAGLSMASGEIVINVDGDTSFDNDMVFTMMKQFADKNVIASGGALRVRNHNANLLTKMQSLEYMLSMQAGKTGMATWGVLNNISGAFGAFRKNLLKQVGGWDTHTAEDLDLTMRLKQYKCRYPDNKLAFSTHSIGHTDVPDTLKGLVLQRLRWDGDLLFLFLRKHNEGLSPRLLGWGNFVFTLAYGVIQNVLLPLLVVIFSVYMVIVYPLKFVLALMLMLYFVYLFLSALIFVVYIGLVSERKKEDLKSVKWLFLYPVYQFFMRLITAFSMVNEVVRRSHEESSMAPWWVLKRGKKF | failed
MTPDRKGDGGPSPLGDLKDALGGYLSAAGHGLVGRAGDRLGSLTDRLTESADGGGANGGTGGSEPGTGGSRSGSDGSKSGSGGSKSGSGGSKSGGSVKATHIMETVDIGVPLRTVYDQWTQLQDFSDFTKGVQSVSPHDETTSDWTAKIAFSTRSWKATVQEQIPDQRIVWTSEGAKGSTNGVVTFHELAPRLTRVVVVVEYYPAGFFEKTGNLWRAQGRRLRLDLKHFARHVTMTDAEEIEGWRGEIRDGEVVKSHEEALEEDEDAADEYEDDEEGEYDEEESDGEVPDGEEEPYADEDDGEYENDDAYEADDEDDERARPRR | failed
MASRSDSAALSRDVPGAAFCGSRDMQKKHLFLALLVTALWGLNFPITKLGLASIDPLLLTALRFTLAALPWVFLVPRPPVAFAWLAAYGLIFGVAMWALINLGIDHGVAPGTAALLIQFSAFFSLGWGVLLFGERLRLQQVLATAIALWGLLRIIGDSPGHATSLGYALLLVSAFSWSVGNVIIKRCGVREVFAFVVWASLFAPLPLLALTWISHGAAPFLQLAGQVSAGAALSLMFQVYAATLFCYWGWNLLLREYPVSRVAPLSLLIPVFGMAGSVLILGQRLGAEEGISMGLILLALAVGQFDWRRLITLGRRSL | failed
MRAVIPYKKAGAKSRLSPVLSLQEREEFVELMLNQVISSLKGAGIEQVDILSPSVYGLEEMTEARVLLDEKDLNEALNRYLKEAEEPVLIVMADLPLLSPEHIKEISSTEKDVCIVPGKGGGTNALFIKNPSKYRVKYYGSSFLTHCSIATDSGQDFEIYDSFMAGTDIDEPEDLVELLIHGKGAAKDYIESKFRLEVKKGRVGLVPL | not failed
SKVEVIYKELGKQHRFSFKGQIFFVSIDSMMEKIDFNIEDSVIVLNFDHAHLWDDSAVNAIDTIVRKFEEKNNVVYVEKLNADSRKIISELSYLNETHL | failed
MDDQGCPRCKTTKYRNPSLKLMVNVCGHTLCESCVDLLFVRGAGNCPECGTPLRKSNFRVQLFEDPTVDKEVEIRKKVLKIYNKREEDFPSLREYNDFLEEVEEIVFNLTNNVDLDNTKKKMEIYQKENKDVIQKNKLKLTREQEELEEALEVERQENEQRRLFIQKEEQLQQILKRKNKQAFLDELESSDLPVALLLAQHKDRSTQLEMQLEKPKPVKPVTFSTGIKMGQHISLAPIHKLEEALYEYQPLQIETYGPHVPELEMLGRLGYLNHVRAASPQDLAGGYTSSLACHRALQDAFSGLFWQPS | not failed
MSLHVTADAPGAAQGGYSVVTFRVPTESETAATTAMTVTLPNVRSARTEPMPGWTARVDRNDKSEAVSVTWTADPGNPGVQPGQFQRFVVSIGPLPSAETVSFPAEQTYSDGRVVAWNQPPAADGSEPEHPAPTLTLATAPGDTEGHHHHHH | not failed
MKISLRLAVSSILGAIAYLGLAIWGMGGFSAFFGHPQLTLIAIATLLMVVAALYSEVNLSSGEQEDQGNRWVLPVFGVIGLLSGFVPAYSDRIDFCTFGGEGLRWLGALLFILGGGLRLWPVFILGRRFSGLVAIQPNHRLVVDGLYRHLRNPSYLGLLVNALGWALAFRSGLGLLLAALTLVPLIARIHAEEALLLKHFGKEYEAYCARSWRLLPGLY | failed
MAKTLGLHILADLYGVDADKIDRVEDIRELLEGAVKYANLTKISSHYYQFQPHGATGVVLLAESHISIHTWPEHGLATVDVYTCGDPSKAYRAMDYIITQLNPKRIDKQVHERGIVEEESNQSEAEKLRSILLQV | not failed
MVEEKVVEKGKERAVEVTKWRRVFDDYRAMSDEILRPDEPKKEKFLEAMRKYLTKQNWPFLLPYKLTLEACTKCGTCAEACTMYLGSGRKKIYSPVYRSDMLRKIYKKHFTLTGKLFGPLIGAKDPTEDDINALAESAYRCTVCRRCALACPFGLDNGLITRETRKIFADLGIVPDELKDNGVENQLKYGNAPKIPYEAFMDILEFIKEDIEDEKGVEVEIPVDKKGAKYLIMNNAGDYLAFTETVQGIVEIMNYVGEDWTLNSPKTGVNDIVNYGLFYSDEDLVRVMKAHVETAKKLDVEYLVVGECGHAYDSIAHFAKDLIPPEERPFKVISWMELLDQFIREGKLKLDKEKNPEPVTFHDSCKWGRTGGIYEEPRRILQAACKDFREMYPNREWNYCCGGGGGFAIMAKDDFLKFRMETYGKMKVQQLKQTGAKIIATICSNCKAQFREMINYYNLDMRFSGVSELVANALVYE | failed
MILNILLNLAIFIIPSLAVWNQIILYIFGKSGDIANLILLNNESNLPKLSIIVPTKGERIEVIQGLIDNIHEAIWDRNKLEIIIVSDDEQEYFDKLLSTLIIPPDLDVRIFRREKKLGYKSGALAFGLQKSTGDLILTLDVDARIEKDSLIKAYNHMVNLGCDAITMEWHGYSNISTSLAKALMVSTVLTSKSILRGRDKLGLKVLPIGCGTIYKRSALEAVNGWDYKMIQDDYELGARLINKGFKVCASSSPVYVEVPDNLIAFYVQQTRWAMGTMEVLYWRFKYIISSDIKLWQKLEIIAYLSQYIPIILTFISAIIFAIAGFVGIRLSMNLPMFIIWAITLSIYASIFVNSAKKSGIDTVTAIKALGRLSAYTVGISPFLLIGTINAFKKTRTYIVTPKGKKAKSNIGYPILAFGVFFILSAFLYMFRGDFLTFIWLAYYSIAFLYTFIAYIKGL | failed
QLIDIGVNLTNSSFHDQQAAIVERALEAGVTQMLLTGTSLAVSEQALELCQQLDASGAHLFATAGVHPHDAKAWDTDSERQLRLLLSEPRVRAVGECGLDFNRDFSPRPLQEKALEAQLTLAAQLRLPVFLHERDASERLLAILKDYRDHLTGAVVHCFTGEREALFAYLDLDLHIGITGWICDERRGTHLHPLVGNIPEGRLMLESDAPYLLPRSLRPKPKSGRNEPAFLPEVLREVALHRGESAEHTAAHTTATARDFFQLP | not failed
